Measurements: patent publication US20260258127A1 (YING MAI DE MEDICAL TECHNOLOGY GUANGDONG, published 2026)
Numbering of substitutions follows the chain as printed. Names may count otherwise.

B1: anti-CD3 antibody mutant VH-Y61C (antibody, V domains shown)
VH: EVQLVESGGGLVQPGGSLRLSCAASGFTFSTYAMNWVRQAPGKGLEWVGRIRSKYNNYATCYADSVKDRFTISRDDSKNSLYLQMNSLKTEDTAVYYCARHGNFGNSYVSWFAYWGQGTLVTVSS
VL: QTVVTQEPSLTVSPGGTVTLTCRSSTGAVTTSNYANWVQQKPGQAPRGLIGGTNKRAPGVPARFSGSLLGDKAALTLLGAQPEDEAEYFCALWYSNLWVFGGGTKLTVL
notes: Cys point mutant of the humanized anti-CD3 antibody; also called VH-61
B2: anti-CD3 antibody mutant VL-N96C (antibody, V domains shown)
VH: B1 VH with C61Y
VL: B1 VL with N96C
notes: Cys point mutant of the humanized anti-CD3 antibody; also called VL-96
B3: anti-CD3 antibody mutant VL-W93C (antibody, V domains shown)
VH: B1 VH with C61Y
VL: B1 VL with W93C
notes: Cys point mutant of the humanized anti-CD3 antibody; also called VL-93
B4: anti-CD3 antibody mutant VL-Y34C (antibody, V domains shown)
VH: B1 VH with C61Y
VL: B1 VL with Y34C
notes: Cys point mutant of the humanized anti-CD3 antibody; also called VL-34
B5: anti-CD3 antibody mutant VH-F112C (antibody, V domains shown)
VH: B1 VH with C61Y, F112C
VL: B1 VL
notes: Cys point mutant of the humanized anti-CD3 antibody; also called VH-112
B6: anti-CD3 antibody mutant VH-F104C (antibody, V domains shown)
VH: B1 VH with C61Y, F104C
VL: B1 VL
notes: Cys point mutant of the humanized anti-CD3 antibody; also called VH-104
B7: anti-CD3 antibody mutant VH-S53C (antibody, V domains shown)
VH: B1 VH with S53C, C61Y
VL: B1 VL
notes: Cys point mutant of the humanized anti-CD3 antibody; also called VH-53
B8: anti-CD3 antibody mutant VH-M34C (antibody, V domains shown)
VH: B1 VH with M34C, C61Y
VL: B1 VL
notes: Cys point mutant of the humanized anti-CD3 antibody; also called VH-34
B9: anti-CD3 antibody mutant VL-N54C (antibody, V domains shown)
VH: B1 VH with C61Y
VL: B1 VL with N54C
notes: Cys point mutant of the humanized anti-CD3 antibody; also called VL-54
B10: anti-CD3 antibody mutant VH-D68C (antibody, V domains shown)
VH: B1 VH with C61Y, D68C
VL: B1 VL
notes: Cys point mutant of the humanized anti-CD3 antibody; also called VH-68
B11: anti-CD3 antibody mutant VL-K55C (antibody, V domains shown)
VH: B1 VH with C61Y
VL: B1 VL with K55C
notes: Cys point mutant of the humanized anti-CD3 antibody; also called VL-55
B12: anti-CD3 antibody mutant VH-W111C (antibody, V domains shown)
VH: B1 VH with C61Y, W111C
VL: B1 VL
notes: Cys point mutant of the humanized anti-CD3 antibody; also called VH-111
B13: anti-CD3 antibody mutant VL-R56C (antibody, V domains shown)
VH: B1 VH with C61Y
VL: B1 VL with R56C
notes: Cys point mutant of the humanized anti-CD3 antibody; also called VL-56
B14: anti-CD3 antibody mutant VL-Y94C (antibody, V domains shown)
VH: B1 VH with C61Y
VL: B1 VL with Y94C
notes: Cys point mutant of the humanized anti-CD3 antibody; also called VL-94
B15: anti-CD3 antibody mutant VH-Y61C conjugated with Molecule I (+20K) (antibody, V domains shown)
VH: B1 VH
VL: B1 VL
modifications: Cys 61 conjugated with Molecule I (+20K)
notes: also called VH-61 Y61 (+20K)
B16: anti-CD3 antibody mutant VH-D68C conjugated with Molecule I (+20K) (antibody, V domains shown)
VH: B1 VH with C61Y, D68C
VL: B1 VL
modifications: Cys 68 conjugated with Molecule I (+20K)
notes: also called VH-68 D68 (+20K)
B17: anti-CD3 antibody mutant VH-S53C conjugated with Molecule I (+20K) (antibody, V domains shown)
VH: B1 VH with S53C, C61Y
VL: B1 VL
modifications: Cys 53 conjugated with Molecule I (+20K)
notes: also called VH-53 S53 (+20K)
B18: anti-CD3 antibody mutant VL-Y34C conjugated with Molecule I (+20K) (antibody, V domains shown)
VH: B1 VH with C61Y
VL: B1 VL with Y34C
modifications: Cys 34 conjugated with Molecule I (+20K)
notes: also called VL-34 Y34 (+20K)
B19: anti-CD3 antibody mutant VL-N96C conjugated with Molecule I (+20K) (antibody, V domains shown)
VH: B1 VH with C61Y
VL: B1 VL with N96C
modifications: Cys 96 conjugated with Molecule I (+20K)
notes: also called VL-96 N96 (+20K)
B20: anti-CD3 antibody mutant VH-M34C conjugated with Molecule I (+20K) (antibody, V domains shown)
VH: B1 VH with M34C, C61Y
VL: B1 VL
modifications: Cys 34 conjugated with Molecule I (+20K)
notes: also called VH-34 M34 (+20K)
B21: anti-CD3 antibody mutant VH-F112C conjugated with Molecule I (+20K) (antibody, V domains shown)
VH: B1 VH with C61Y, F112C
VL: B1 VL
modifications: Cys 112 conjugated with Molecule I (+20K)
notes: also called VH-112 F112 (+20K)
B22: anti-CD3 antibody mutant VL-W93C conjugated with Molecule I (+20K) (antibody, V domains shown)
VH: B1 VH with C61Y
VL: B1 VL with W93C
modifications: Cys 93 conjugated with Molecule I (+20K)
notes: also called VL-93 W93 (+20K)
B23: anti-CD3 antibody mutant VL-K55C conjugated with Molecule I (+20K) (antibody, V domains shown)
VH: B1 VH with C61Y
VL: B1 VL with K55C
modifications: Cys 55 conjugated with Molecule I (+20K)
notes: also called VL-55 K55 (+20K)
B24: anti-CD3 antibody mutant VH-F104C conjugated with Molecule I (+20K) (antibody, V domains shown)
VH: B1 VH with C61Y, F104C
VL: B1 VL
modifications: Cys 104 conjugated with Molecule I (+20K)
notes: also called VH-104 F104 (+20K)
B25: anti-CD3 antibody mutant VH-W111C conjugated with Molecule I (+20K) (antibody, V domains shown)
VH: B1 VH with C61Y, W111C
VL: B1 VL
modifications: Cys 111 conjugated with Molecule I (+20K)
notes: also called VH-111 W111 (+20K)
B26: anti-CD3 antibody mutant VL-N54C conjugated with Molecule I (+20K) (antibody, V domains shown)
VH: B1 VH with C61Y
VL: B1 VL with N54C
modifications: Cys 54 conjugated with Molecule I (+20K)
notes: also called VL-54 N54 (+20K)
B27: anti-CD3 antibody mutant VL-Y94C conjugated with Molecule I (+20K) (antibody, V domains shown)
VH: B1 VH with C61Y
VL: B1 VL with Y94C
modifications: Cys 94 conjugated with Molecule I (+20K)
notes: also called VL-94 Y94 (+20K)
B28: anti-CD3 antibody mutant VL-R56C conjugated with Molecule I (+20K) (antibody, V domains shown)
VH: B1 VH with C61Y
VL: B1 VL with R56C
modifications: Cys 56 conjugated with Molecule I (+20K)
notes: also called VL-56 R56 (+20K)
B29: CD3 antibody VH-Y61C conjugated through the cleavable linker peptide with R1 = PEG10K (Table 3) (antibody, V domains shown)
VH: B1 VH
VL: B1 VL
modifications: Cys 61 conjugated with cleavable linker peptide P carrying blocker PEG10K
notes: also called VH-61 Y61C PEG10K
B30: CD3 antibody VH-Y61C conjugated through the cleavable linker peptide with R1 = PEG5K (Table 3) (antibody, V domains shown)
VH: B1 VH
VL: B1 VL
modifications: Cys 61 conjugated with cleavable linker peptide P carrying blocker PEG5K
notes: also called VH-61 Y61C PEG5K
B31: CD3 antibody VH-Y61C conjugated through the cleavable linker peptide with R1 = PEG20K (Table 3) (antibody, V domains shown)
VH: B1 VH
VL: B1 VL
modifications: Cys 61 conjugated with cleavable linker peptide P carrying blocker PEG20K
notes: may be the same molecule as m19 (same value 400) or as CD3-Her2+20k; also called VH-61 Y61C PEG20K
B32: CD3 antibody VH-Y61C conjugated through the cleavable linker peptide with R1 = PEG40K (Table 3) (antibody, V domains shown)
VH: B1 VH
VL: B1 VL
modifications: Cys 61 conjugated with cleavable linker peptide P carrying blocker PEG40K
notes: also called VH-61 Y61C PEG40K
B33: CD3 antibody VH-Y61C PEG10K conjugate after activation (Table 3) (antibody, V domains shown)
VH: B1 VH
VL: B1 VL
modifications: Cys 61: PEG10K blocker released by activation (cleavage of the linker peptide); what remains on Cys 61 is not stated
B34: CD3 antibody VH-Y61C PEG20K conjugate after activation (Table 3) (antibody, V domains shown)
VH: B1 VH
VL: B1 VL
modifications: Cys 61: PEG20K blocker released by activation (cleavage of the linker peptide); what remains on Cys 61 is not stated
B35: CD3 antibody VH-Y61C PEG5K conjugate after activation (Table 3) (antibody, V domains shown)
VH: B1 VH
VL: B1 VL
modifications: Cys 61: PEG5K blocker released by activation (cleavage of the linker peptide); what remains on Cys 61 is not stated
B36: CD3 antibody VH-Y61C PEG40K conjugate after activation (Table 3) (antibody, V domains shown)
VH: B1 VH
VL: B1 VL
modifications: Cys 61: PEG40K blocker released by activation (cleavage of the linker peptide); what remains on Cys 61 is not stated

What follows are binders tested against T1, CD3 (antigen of the anti-CD3 antibody, coated in the ELISA of Examples 1-3) (Homo sapiens (Human), UniProt P07766 23-126) (assay: ELISA, coated antigen, anti-human IgG-HRP; reference wild-type antibody).
T1 construct: also called antibody antigen
T1 sequence (P07766 23-126 limits assumed, form in doubt): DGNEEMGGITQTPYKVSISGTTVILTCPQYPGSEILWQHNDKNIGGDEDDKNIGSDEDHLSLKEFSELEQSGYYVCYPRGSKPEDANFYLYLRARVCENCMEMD
Method: (§1) In the present invention, the activity of each mutant with a point mutation compared to that of its initial antibody is detected by ELISA. Specifically, the 96-well plates were coated with antibody antigen overnight, then blocked with 1% BSA blocking agent (Thermo Fisher) at 37° C. for 2 hours, and washed with PBST for 3 times. The corresponding antibody or the corresponding mutant was added for binding at 37° C. for 1 hour, and then washed with PBST for 3 times. HRP enzyme-linked anti-human IgG was added for binding at 37° C. for 1 hour, and washed with PBST for 3 times. TMB substrate (Solarbio., Inc.) was used to detect absorbance at 450 nm. The effect on mutant binding strength was calculated through EC50 mutation/EC50 wild-type.
According to the above method, the binding activity of anti-CD3 antibody SP34 mutant with mutations at different position shown in Table 1 was detected.

Row | Binder | Binding strength of mutants (EC50 mutant/EC50 wild-type) [fold]
1 | B1 | 5.1
2 | B2 | 1
3 | B3 | 1.8
4 | B4 | 1.2
5 | B5 | 1.2
6 | B6 | 1
7 | B7 | 1.2
8 | B8 | 1.1
9 | B9 | 1
10 | B10 | 2
11 | B11 | 0.9
12 | B12 | 2
13 | B13 | 1.5
14 | B14 | 1

These binders were tested against T1, CD3 (antigen of the anti-CD3 antibody, …) (assay: binding activity of the conjugated mutant compared with the wild-type antibody (ELISA as in Example 1)).
Method: as §1

Row | Binder | Blocking fold after conjugation (+20K) [fold]
15 | B15 | 400
16 | B16 | 4
17 | B17 | 3
18 | B18 | 8
19 | B19 | 2
20 | B20 | 5
21 | B21 | 4
22 | B22 | 5
23 | B23 | 5
24 | B24 | 13
25 | B25 | 6
26 | B26 | 12
27 | B27 | 30
28 | B28 | 6

The binders below were run against T1, CD3 (antigen of the anti-CD3 antibody, …) (assay: binding activity after conjugation with different R1; method not described (presumably ELISA)).

Row | Binder | Blocking fold after conjugation [fold]
29 | B29 | 20
30 | B30 | 10
31 | B31 | 400
32 | B32 | 500

These binders were tested against T1, CD3 (antigen of the anti-CD3 antibody, …) (assay: binding activity after activation of the conjugate; method not described).

Row | Binder | Recovery of binding force after activation (%)
33 | B33 | 100
34 | B34 | 100
35 | B35 | 100
36 | B36 | 100
